{
  "source": "paper PMC4476745",
  "biological_target": "PAR-5 (UniProt P41932)",
  "assay": "IP anti-GFP, blot anti-PAR-5",
  "conditions": "reference: wild type ATGL-1::GFP; sites S303",
  "data": [
    {"substance": "ATGL-1 (from UniProt Q11186) ATGL-1(S303A)::GFP", "values": [
      {"measurement": "binding against the reference", "result": "weaker"}
    ]}
  ]
}
